Measured values reported in patent publication US20180044429A1 (CELLDEX THERAPEUTICS, published 2018).
Where a chain is given by its changes, count along the chain named. Each block holds one binder with its values, some of them ahead of it.

Experiments:
[1] = molecular target: T1, recombinant human CD27 (soluble, captured on anti-FLAG coated ELISA plates) (human, UniProt P26842 20-191); assay: ELISA; CD27 captured on plates coated with anti-FLAG antibody, detection with goat anti-human IgG Fc-HRP; panel title 'Recombinant CD27'
T1 construct: also called rCD27; sCD27
T1 sequence: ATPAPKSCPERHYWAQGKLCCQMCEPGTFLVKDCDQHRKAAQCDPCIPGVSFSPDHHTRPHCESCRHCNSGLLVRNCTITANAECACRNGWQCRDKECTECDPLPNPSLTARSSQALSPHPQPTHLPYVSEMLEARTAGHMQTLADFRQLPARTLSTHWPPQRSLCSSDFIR
Protocol: In this example, the binding activity of the CD27 agonists prepared as described in Example 2 was examined. Binding to recombinant CD27 (rCD27) was tested by standard ELISA. Human CD27 was captured on ELISA plates coated with anti-FLAG antibody, followed by incubation with CD27 agonists. A goat anti-human IgG Fc-HRP (horseradish peroxidase) antibody and substrate Super Blue TMB were used for detection.
The CD27 agonists tested were 1F5mAb-1F5sFv (sFv), 1F5mAb-2C2sFv (sFv) and 1F5mAb-CD70. The full-length, unconjugated IgG form of the anti-human CD27 monoclonal antibodies 1F5 and 2C2 were used as positive controls. Binding to a mutant form of soluble CD27, in which the arginine at position 87 was substituted with alanine (R87A), which is within the 1F5 binding site, was also tested.

[2] = molecular target: soluble recombinant human CD27 with R87A substitution (human) (UniProt P26842); assay: ELISA; mutated (R87A) CD27 captured on plates coated with anti-FLAG antibody, detection with goat anti-human IgG Fc-HRP; panel title 'mutated CD27'

binding result [1]: binds | EC50 (read off the curve) [2]: 0.02 µg/mL
B1: human anti-human CD27 monoclonal antibody 2C2 (full-length, unconjugated IgG) (antibody, V domains shown)
VH: QVQLVESGGGVVQPGRSLRLSCAASGFTFSSYDIHWVRQAPGKGLEWVAVIWNDGSNKYYADSVKGRFTISRDNSTNSLFLQMNSLRAEDTAVYYCVGGTADLEHWDQGTLVTVSS
VL: DIQMTQSPSSLSASVGDRVTITCRASQGISSWLAWYQQKPEKAPKSLIYAASSLQSGVPSRFSGSGSGTDFTLTISSLQPEDFATYYCQQYNSYPLTFGGGTKVEIK
notes: Tested as full-length unconjugated IgG; also called 2C2 mAb

binding result [1]: binds
B2: human anti-human CD27 monoclonal antibody 1F5 (full-length, unconjugated IgG) (antibody, V domains shown)
VH: QVQLVESGGGVVQPGRSLRLSCAASGFTFSSYDMHWVRQAPGKGLEWVAVIWYDGSNKYYADSVKGRFTISRDNSKNTLYLQMNSLRAEDTAVYYCARGSGNWGFFDYWGQGTLVTVSS
VL: B1 VL with S31R, S93T, L96R, G100Q
notes: also called 1F5 mAb; anti-CD27 antibody (1F5)
